Measurements: the DeepSol protein solubility set

Test: soluble on expression in E. coli; label from the status in PepcDB or PDB records

Sequence	soluble on expression in E. coli
MGSDKIHHHHHHMNQAMDTKQIAPFTLALPEGEALPLVCDSPHSGTFYPADFGAVVAPERLRGGEDTHVDALWEAVPRVGGTLLAATFPRVYIDPNRMLDDIDPAQLEGPWPTPLAPGEKTRLGYGLIWSNVDAATPIYDRKLTVAEVQRRINRYYRPYHAALTEAVEGAYQRFGAVWHLNLHSMPNNAYERLKIQSPRPLADFVLGDRDGTTCEPGLVDLVERELREKGYTVARNDPYKGVQLIAQIGRPAERRNSLQIEIRRPLYMEEGTRERNEGFATLQRDLTLLTLRIAEYVRRGV	not soluble
LRLCQVDRCTADMKEAKLYHRRHKVCEVHAKASSVFLSGLNQRFCQQCSRFHDLQEFDEAKRSCRRRLAGHNERRRKSSGE	soluble
MENIFLKRLEFKAFEEDSVFSKIEGLNKFNSLNFKKPITFFSGENGTGKSTLLEAIAVNWGFNPEGGSINFNFSTKDTHLDLHNYLTVGKSVKRATDGFFLRAESFYNVATYAENIDLDFSEYGDKSLHHQSHGESFLNLVNHRFRGNGLYLLDEPEAALSPQRQLALMISIKKLIDEGSQFIIVSHSPILLAMPDSQIISFDKDSPLEITYEESMPYEITSLFLNNKNRILSHLFAELEHHHHHH	soluble
MNKDNSPSESLVNSSASEDKTVKTSMSANNPSINDSSLPERLPAMCGCDSQNREESANSGVQLSDHANESLSKQADDVIYEGGLEDKDSVFRAIIEDDDACEVLDDGIDNCEVEIPVAIECHLCNEMMNLCLRRTRYRGQAREYPAYRCNRKGCQTFRSIRKVFGNCMSDVDNSGDATTRTMIYHPPHKVRKTSPGEFSDDDSKEFVVQRVYIPKIDNRNKDQSVKSLSVTDRMRKANQDRAIVFSEFADQLRRDIVANKRVRIKKHVEEDQQGTLFYISKELNPQEVIELQDVIIKTLISMRKIPPPMTMDDLPLFANCPYSKKAVDAGEFDMSETEERPRPKLPKTIYQNTRTHSDSLTERSRHFTYDELKHSMEANAEGPSTCRIGISRSERNSESLQWIGLKTYEDSTDGFAKSVNSEGERQQGINGQIDDEVFEDESRFKPVASMQDVMRTLSTPSTLRPPVSPLMKSFSSMDSSNFKNPINAHPPMFFSDPHFLINNNQFNSPTPFYALNSYFPSFPMDSSQVYQNATDEHFTPSGASEVVCTEQTPGHHFTYIHPDSGVRLTDPSAFLTSFVPSPITKVPPINFNDETSRSRSASAPSTSVYNTGEFERSHKKYENEEDEKLMDNQNFSDEQPKE	not soluble
NLYHTPIFSVDREYEWLEKRHDKMLFAFDIPIHLTRRVLLVAGEAHTGGTMEAFTRYLRSIGVGEIKTCVFYKQSICTQHIDFWGMEGENTILMPWQNAQSIRDSLSKAQANQLKKIQRQRDC	not soluble
MGSDKIHHHHHHMSEIETIQAYYAASLGKDGRITRTQRQILAAALDLFAEKGYEEVGTREIAERAGVAEGTLFHNFVNKNGILDAIMQPIVQNILPTMLNTLDQAVLDSPNQTLQAFVVALVRDRVAFVTRNRASLAVILSQFFNNAQDRAAVLGMVSPSILAQANEAMDRLKAARELVDWPNRMILQLVFSTIGGYLVEQVLYPQLDDLSDEQLIHYLSDFLVNGLSPRRIPLQDDNTAS	not soluble
MWQQKSFQQNEKGVLYLVPTPIGNLEDMTFRAIRILKEADLIAAEDTRQTKKLCNYFEIETPVMSYHEHNKEVSGKKILEKLDEGKTVALVSDAGMPCISDPGYDIVVEAVAEQYHVIPLPGANAALTALIASGLQTKQFYFYGFLQRNKKERKMELEKLRYVQTTMMFYEAPHRLDDTLISMQEVLGNREIVLCRELTKKFEEFIRGTVEEAIEWTKQNEVRGEFCILVAGSTEEPAPEEQWWESISVYNHIEHYINEKGMNSKEAIKTVAKDRDLSKRDVYQIYHVDKK	soluble
MSLKMIISYGMPKSASTFAWLVIKKICLNSRLDDVVDLSTAAKGNDSVEDYIDGSVKVNAAQITREVGERCCVIKTHSSAVHFRTLVGGSAFFLPFAQHRDPRDVALSLMDHARRSRELGIADYADCLSIEGCLPVIDSSIENFIEWVDQYSAIPISYDYLCFNGLACLSFIASALDCDVDCAAILKGFERKESIAQFNKGIRHRWVDEMPQAQARMLFRRYEEYYDRFGAEGHHHHHH	not soluble
MNKAPHETRVVVGMSGGVDSSVAALLLKEQGYDVIGIFMKNWDDTDENGVCTATEDYEDVVRVCNQIGIPYYAVNFEKQYWDKVFTYFLNEYKAGRTPNPDVMCNKEIKFKAFLEHAMSIGADYIATGHYARVEFRDGEYKMLRGADPNKDQTYFLNQLGQAQLSKVMFPIGHLQKADVRRIAKEAGLATAGKKDSTGICFIGERDFKEFLSHYLPAQPGVMKTLDGEVKGRHDGVMYYTIGQRHGLGIGGSGEPWFVVGKDVRENVLYVAQGFENEYLYSTSLKAVDVNWVSDRKPEAPFRCTAKFRYRQPDVGVTVHPLADGGVEVVFDAPARAVTPGQAVVFYNGEECLGGGTIDEVFRNGEKLWYVG	not soluble
RRENARRFDRKQYDFVDIDECAIQTKTYPGSDHDMAQDWLQKQMMILKPKYREPLLLSLVAGLNHDEIAQALRLNHNTVATRLFRARNQLIAQQGNH	not soluble
MTYELCLEYGTYPLSRVDAYWGEDQNPPTFIQEDRLLCHKLETMNHLFHDLFVTIESQFHYVGFNMPEKRAQIRILYQEVATILKSKYKDYPIKIETFLL	not soluble
MIGAVNSVEAVITSIQGLSGSPEDLSALHDLLRGAQDSLRAEPGVNFSTLDQLDASKHSLGYLYFLEVLTCGPVSKEKAAYEIPIIARFINSCDAGQIRLASYKFVSLCKILKDHVIALGDPLRGVGPLLNAVQKLQVSSKRLTALHPDVLQLCLQAKSYKSGFSILSDDIVEIDQPRDFFLYSYYGGMICIGLKRFQKALELLYNVVTAPMHQVNAIALEAYKKYILVSLIHNGQFTNTLPKCASTAAQRSFKNYTGPYIELGNCYNDGKIGELEALVVARNAEFEEDKNLGLVKQAVSSLYKRNILRLTQKYLTLSLQDIANMVQLGNAKEAEMHVLQMIQDGQIHALINQKDGMVRFLEDPEQYKSSEMIEIMDSVIQRTIGLSKNLLAMDESLSCDPLYLGKVGRERQRYDFGDDFDTVPQKFSM	soluble
MSLIAPVLKGKGVLITRAKEQASSLSRLIEEAGGVPIEVPLLSFIKTMDVYEEVGASIQSYEWIVFTSANAVRFFFNTWPRQELKKLPSIAAVGSSTQRELSRYGISVDLMPNEYVAESLVETMVKRLKPCRVLFPKGNLARPTVKVGLETNGFIVDEMTVYETKRPLEAKVMLCEAFQKHRIEIITFTSPSAVDHFVTLLDREFILHEHLLYAYIGPIAAARAKQRGLPVHIVAKTYTGEGLVNAICDFVKEDGEGHHHHHH	soluble
GPGSMSSTQTTSVFFTDVPLFVEERSLRKHFESVGHITDFRLLGPPVGKDFRYGFAEYLDSTSAEEAIARLNGTSFGGRPMKVMSAAATRGRKRQRQQNASHQQQPAPRGGMTFPRGYTDPVLGRDDTSIFECLQGMQQSDAYEAVEQLRVLVLERKNEARKLLENNPALRLAVVMILQHAGRLPFGPLPPEAIQHGGIRVDAPVPAAPAEGEGEKVEPPREQNDEIIEILSKLSEEEVERIVSMTDEDLNRIPDVSQRQQIGVLRERLLELAADLE	soluble
MDYRVIKENDVFLLTDQDGNIPEHHPYGLGLYTKDTRFLSKWSLRINGEEPVLLASDAAQNYVATILLTNPHIERDGELILWRESVEIERKRFIYAGVLYETIKLKNYHPKPVQLEISVHMDADFADMFIVRGFQTGEVGKRTGQTIGKRSLTFHYEGADGVERATKVSWDREEKTVKEHGEIVFDFALDRAEEQTVTLMVEPITGKTGRVEVIPPEQALQRLQESYQRWEGETANVITDERQFERLVRRGIGDLRVLLTDLGCGPFPVAGLPWFGVPFGRDSLIAALQLLPFNHEIAKGTLLTMARYQGTKVDPWRDEQPGKIMHEIRFGELANTNQIPFTPYYGTIDATPLFLVLLVEYVKWTGNFDLVRQLRSNIDAALHWIDRYGDRDGDLFVEYFQESSKGIANQGWKDSGDSIVHENGEYARAPIALVEVQGYVYHAKMGLADIFEQLQEVEKAEALRTQAEALKKRFEEQFWMEDRKFYALALDENKAPVRTITSNPGHVLFSGMLEGRRADAVIDTLLSEKMFSGYGIRTMGEGEAGYNPMSYHNGSIWPHDNSLILLGLSKLGRRREAKTVIEGLMEASMHFEYDRLPELFCGYSRSEGKPVRYPVACSPQAWAAGTPLVFVQALLGLFPNALEKNIYLSPTLLDSMNMLRVENILIGGGRLSLTVTREQDNFHVQIDENTTGWDIVLR	not soluble
ANCAVCDSPGDLLDQFFCTTCGQHYHGMCLDIAVTPLKRAGWQCPECKVCQNCKQSGEDSKMLVCDTCDKGYHTFCLQPVMKSVPTNGWKCKNCRICI	soluble
GDWLDLNTTSSVETGQAIVTLDDAQIALNGIYRLASGHSYYGDNYWYYGDCRAADVQARITKGDGKRVSPYYEYNVLASDNLNIVLPWNTVYKVIRQTNNLIQKIESGSIQSSDTKELNRIKSEALVMRGLSLFNLTRLFGMPYTNDKGASLGVPIETSPSDPTHKPSRSTVAQCYEQVVSDMSNALSGLRQETSNGYINYWAAQALLSRVYLNMGEYQKAYDAATDVIKNNGGRYQLYSYEEYPNVWGQDFQSESLFELYITLSEPSGGTGGEGAPMVYANEATVDWNNLILSEDFLNLLNEDPKDVRHCLTKESVIENNTGLPAAAMHEKVYLAKFPGKTGDDPKTNNICIIRLSEVYLNAAEAGLKKGTDIEEAQGYLNDIISRRTTDTSQQVSTETFTLDRILKERRKELVGEGEVFYDYLRNGLAIERKGSWHLETLKASNAQKIEATDLRIALPIPQSEIDANPNIQQNPR	soluble
PGPPQGPPQPVQQSKRLQQTQAQVEEVVDIMRVNVDKVLERDSKISELDDRADALQAGASQFEASAGKLKRKFWWKNCKM	soluble
SMPSQQRVKRWGFSFDEILKDQVGRDQFLRFLESEFSSENLRFWLAVQDLKKQPLQDVAKRVEEIWQEFLAPGAPSAINLDSHSYEITSQNVKDGGRYTFEDAQEHIYKLMKSDSYARFLRSNAYQDLLLAKKKGKSLAGKRLTGLMQ	soluble
KRAPDGRVLDIAGTEHSLHDLTRGKISLVSFVYLTCGDVNGCPLAMSVFFDVHDASGDLPGLNEDVQLLTISFDPARDTVEAIEAFAYPITSDEQAGDKLNWQVLTTSGPQELRPILDGYGQVVDRSEDQETISHLLRLFLVDRQGDIRNVYGLGFLDPRLLLTDIETLLMEEAGA	soluble
MGSDKIHHHHHHMKLDPTSPSLNIMLANPRGFCAGVDRAISIVERALELFSPPIYVRHEVVHNRYVVQNLKDRGAVFVEELDQVPDNNIVIFSAHGVSQAVRQEAKARGLRVFDATCPLVTKVHLQVTRASRKGIECILIGHEGHPEVEGTMGQYDNPNGGVYLIESPADVDALEVRDPNNLCFVTQTTLSVDDTLDIIAALQKRFPSIEGPRKDDICYATQNRQDAVRNLSADVDLLIVVGSKNSSNSNRLRELALKTGTQSYLVDTADDVESSWFDNVSRVAVTAGASAPEVLVQQVVQAIAKLAPSVVTEVEGRKEDTVFAVPAELR	not soluble
MGGSHHHHHHGMASALSWKEARCQPAFLKDQARAIRLPPVDACRTQVRHGTGWGREPGILTGWGRRARDPDLGALPPGIQAAFCPGLPRCIEIELVHTAP	not soluble
SNADDMIILKGVNIFPIQIETILLQFKELGSDYLITLETAESNDEMTVEVELSQLFTDDYGRLQALTREITRQLKDEILVTPRVKLVPKGALPKSEGKAVRVKDLRKTF	soluble
